Each sequence was assayed on Escherichia coli TOP10 (assay: shrunken log2 fold change of peptide-encoding DNA abundance (4.5 h post-induction vs induction); higher = less antimicrobial activity (less host growth inhibition)). Settings: time post-induction: 4.5 h; library: site-saturation at positions 5, 18, 19, 20.
RRIRWRPPRLPRPRPRPNYAPRP was tested, and the “shrunken log2 fold change” value was -0.0925.
With RRIRKRPPRLPRPRPRPFHQPRP the “shrunken log2 fold change” value was -0.0483.
RRIRLRPPRLPRPRPRPTPKPRP was tested, and the “shrunken log2 fold change” value was 0.137.
With RRIRRRPPRLPRPRPRPVGLPRP the “shrunken log2 fold change” value was 0.111.
With RRIRVRPPRLPRPRPRPHFAPRP the “shrunken log2 fold change” value was 0.0941.
For RRIRIRPPRLPRPRPRPAVMPRP, the “shrunken log2 fold change” value was -0.129.
For RRIRIRPPRLPRPRPRPCQMPRP, the “shrunken log2 fold change” value was -0.111.
With RRIRYRPPRLPRPRPRPMSMPRP the “shrunken log2 fold change” value was -0.304.
In the case of RRIRERPPRLPRPRPRPLKSPRP, the “shrunken log2 fold change” value is reported as -0.169.
In the case of RRIRRRPPRLPRPRPRPQLRPRP, the “shrunken log2 fold change” value is reported as 0.213.
RRIRIRPPRLPRPRPRPKSPPRP was tested, and the “shrunken log2 fold change” value was -0.0939.
RRIRWRPPRLPRPRPRPLSAPRP was tested, and the “shrunken log2 fold change” value was 0.553.
RRIRNRPPRLPRPRPRPYLTPRP was tested, and the “shrunken log2 fold change” value was -0.332.
For RRIRVRPPRLPRPRPRPLPWPRP, the “shrunken log2 fold change” value was 0.196.
For RRIRLRPPRLPRPRPRPYCCPRP, the “shrunken log2 fold change” value was -1.03.
RRIRPRPPRLPRPRPRPTFGPRP was tested, and the “shrunken log2 fold change” value was 0.191.
With RRIRTRPPRLPRPRPRPIERPRP the “shrunken log2 fold change” value was 0.107.
For RRIRERPPRLPRPRPRPQIVPRP, the “shrunken log2 fold change” value was -0.108.
RRIRDRPPRLPRPRPRPQPRPRP was tested, and the “shrunken log2 fold change” value was 0.458.
In the case of RRIRHRPPRLPRPRPRPGEDPRP, the “shrunken log2 fold change” value is reported as 0.0147.
For RRIRHRPPRLPRPRPRPTGNPRP, the “shrunken log2 fold change” value was -0.215.
For RRIRFRPPRLPRPRPRPWHFPRP, the “shrunken log2 fold change” value was -0.542.
For RRIRLRPPRLPRPRPRPSLSPRP, the “shrunken log2 fold change” value was -0.305.
RRIRSRPPRLPRPRPRPKMIPRP was tested, and the “shrunken log2 fold change” value was -0.292.
RRIRYRPPRLPRPRPRPKVFPRP was tested, and the “shrunken log2 fold change” value was 0.149.
For RRIRDRPPRLPRPRPRPKGVPRP, the “shrunken log2 fold change” value was -0.00195.
In the case of RRIRLRPPRLPRPRPRPENAPRP, the “shrunken log2 fold change” value is reported as -0.000678.
RRIRWRPPRLPRPRPRPRPGPRP was tested, and the “shrunken log2 fold change” value was 0.772.
In the case of RRIRQRPPRLPRPRPRPCEGPRP, the “shrunken log2 fold change” value is reported as -0.000921.
With RRIRHRPPRLPRPRPRPPKQPRP the “shrunken log2 fold change” value was -0.00419.
In the case of RRIRCRPPRLPRPRPRPWPGPRP, the “shrunken log2 fold change” value is reported as 0.123.
In the case of RRIRTRPPRLPRPRPRPRRIPRP, the “shrunken log2 fold change” value is reported as -0.16.
RRIRGRPPRLPRPRPRPVYFPRP was tested, and the “shrunken log2 fold change” value was -0.0244.
For RRIRNRPPRLPRPRPRPPGGPRP, the “shrunken log2 fold change” value was 0.748.
In the case of RRIRSRPPRLPRPRPRPKFQPRP, the “shrunken log2 fold change” value is reported as 0.146.
RRIRTRPPRLPRPRPRPGCQPRP was tested, and the “shrunken log2 fold change” value was -0.0154.
In the case of RRIRPRPPRLPRPRPRPGNEPRP, the “shrunken log2 fold change” value is reported as -0.247.
In the case of RRIRERPPRLPRPRPRPNRVPRP, the “shrunken log2 fold change” value is reported as -0.00226.
With RRIRLRPPRLPRPRPRPKTHPRP the “shrunken log2 fold change” value was -0.0161.
With RRIRTRPPRLPRPRPRPQNRPRP the “shrunken log2 fold change” value was -0.199.
In the case of RRIRSRPPRLPRPRPRPEKQPRP, the “shrunken log2 fold change” value is reported as 0.1.
For RRIRWRPPRLPRPRPRPVACPRP, the “shrunken log2 fold change” value was -0.052.
In the case of RRIRDRPPRLPRPRPRPIQIPRP, the “shrunken log2 fold change” value is reported as -0.384.
RRIRPRPPRLPRPRPRPMYQPRP was tested, and the “shrunken log2 fold change” value was -0.207.
For RRIRNRPPRLPRPRPRPPADPRP, the “shrunken log2 fold change” value was 0.595.
For RRIRPRPPRLPRPRPRPVYQPRP, the “shrunken log2 fold change” value was -0.0913.
RRIRGRPPRLPRPRPRPYSNPRP was tested, and the “shrunken log2 fold change” value was 0.0659.
For RRIRKRPPRLPRPRPRPWTEPRP, the “shrunken log2 fold change” value was -0.172.
For RRIRGRPPRLPRPRPRPTSVPRP, the “shrunken log2 fold change” value was 0.197.
With RRIRQRPPRLPRPRPRPHMSPRP the “shrunken log2 fold change” value was -0.28.
For RRIRWRPPRLPRPRPRPPGQPRP, the “shrunken log2 fold change” value was 0.123.
In the case of RRIRDRPPRLPRPRPRPPVAPRP, the “shrunken log2 fold change” value is reported as 0.304.
For RRIRTRPPRLPRPRPRPSGYPRP, the “shrunken log2 fold change” value was -0.256.
With RRIRTRPPRLPRPRPRPIGRPRP the “shrunken log2 fold change” value was -0.159.
With RRIRFRPPRLPRPRPRPWCSPRP the “shrunken log2 fold change” value was -0.714.
RRIRDRPPRLPRPRPRPNELPRP was tested, and the “shrunken log2 fold change” value was -0.0493.
In the case of RRIRRRPPRLPRPRPRPSEDPRP, the “shrunken log2 fold change” value is reported as 0.0524.
With RRIRNRPPRLPRPRPRPAGMPRP the “shrunken log2 fold change” value was -0.126.
For RRIRLRPPRLPRPRPRPKTVPRP, the “shrunken log2 fold change” value was -0.0699.
RRIRWRPPRLPRPRPRPNFWPRP was tested, and the “shrunken log2 fold change” value was 0.224.
For RRIRNRPPRLPRPRPRPNGYPRP, the “shrunken log2 fold change” value was -0.0975.
For RRIRSRPPRLPRPRPRPLWLPRP, the “shrunken log2 fold change” value was -0.0472.
In the case of RRIRLRPPRLPRPRPRPFMTPRP, the “shrunken log2 fold change” value is reported as -0.824.
For RRIRYRPPRLPRPRPRPAWYPRP, the “shrunken log2 fold change” value was -0.687.
RRIRNRPPRLPRPRPRPCYTPRP was tested, and the “shrunken log2 fold change” value was -0.0126.
RRIRTRPPRLPRPRPRPNYVPRP was tested, and the “shrunken log2 fold change” value was -0.35.
With RRIRPRPPRLPRPRPRPKPQPRP the “shrunken log2 fold change” value was 0.397.
RRIRHRPPRLPRPRPRPWHEPRP was tested, and the “shrunken log2 fold change” value was -0.0659.
In the case of RRIRCRPPRLPRPRPRPMWVPRP, the “shrunken log2 fold change” value is reported as 0.121.
In the case of RRIRFRPPRLPRPRPRPRNWPRP, the “shrunken log2 fold change” value is reported as 0.19.
RRIRKRPPRLPRPRPRPYDSPRP was tested, and the “shrunken log2 fold change” value was 0.0392.
For RRIRPRPPRLPRPRPRPIPEPRP, the “shrunken log2 fold change” value was 1.27.
RRIRRRPPRLPRPRPRPGAPPRP was tested, and the “shrunken log2 fold change” value was 0.891.
With RRIRVRPPRLPRPRPRPVFCPRP the “shrunken log2 fold change” value was 0.142.
RRIRDRPPRLPRPRPRPFFNPRP was tested, and the “shrunken log2 fold change” value was -0.156.
RRIRGRPPRLPRPRPRPYSSPRP was tested, and the “shrunken log2 fold change” value was -0.223.
RRIRLRPPRLPRPRPRPNRKPRP was tested, and the “shrunken log2 fold change” value was -0.223.
In the case of RRIRIRPPRLPRPRPRPLMTPRP, the “shrunken log2 fold change” value is reported as -0.233.
For RRIRFRPPRLPRPRPRPRHNPRP, the “shrunken log2 fold change” value was -0.275.
RRIRWRPPRLPRPRPRPELEPRP was tested, and the “shrunken log2 fold change” value was 1.35.
With RRIRRRPPRLPRPRPRPPPEPRP the “shrunken log2 fold change” value was 1.37.
For RRIRWRPPRLPRPRPRPDVAPRP, the “shrunken log2 fold change” value was 1.3.
In the case of RRIRQRPPRLPRPRPRPCHPPRP, the “shrunken log2 fold change” value is reported as -0.032.
RRIRVRPPRLPRPRPRPWWEPRP was tested, and the “shrunken log2 fold change” value was 0.161.
In the case of RRIRIRPPRLPRPRPRPAHDPRP, the “shrunken log2 fold change” value is reported as 0.0246.
In the case of RRIRSRPPRLPRPRPRPYLFPRP, the “shrunken log2 fold change” value is reported as -0.676.
RRIRVRPPRLPRPRPRPKAYPRP was tested, and the “shrunken log2 fold change” value was 0.0199.
With RRIRGRPPRLPRPRPRPVTKPRP the “shrunken log2 fold change” value was 0.661.
In the case of RRIRSRPPRLPRPRPRPGMDPRP, the “shrunken log2 fold change” value is reported as 0.0734.
RRIRTRPPRLPRPRPRPIMVPRP was tested, and the “shrunken log2 fold change” value was -0.198.
With RRIRARPPRLPRPRPRPRIMPRP the “shrunken log2 fold change” value was 0.121.
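Also: peptides expressed intracellularly from a pBAD plasmid library in pooled LB shake-flask culture, induced with 0.3% L-arabinose, DNA abundance read by NGS, three biological replicates, DESeq2 with apeglm shrinkage.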
